# From patent US20250051467A1 (JIANGSU HENGRUI PHARMACEUTICALS, published 2025)
# Legend:
# mouse FAP on CHOK1 cells [1] = target: T1, mouse FAP on CHOK1 cells (mouse, UniProt P97321 1-761); assay: FACS, percent of marked cells overexpressing mouse FAP, anti-hIgG Alexa Fluor-647 secondary antibody
# T1 construct: whole, on cells; also called cell surface mouse FAP
# Experimental: (§1) A FACS assay was used to measure the binding properties of anti-FAP antibodies on cells. The assay comprises the following steps: A CHO cell line overexpressing human FAP was constructed and plated (1E5/well). The test antibodies were added at 100 μL/well. The highest concentration was 100 nM. A 5-fold dilution was performed, yielding 8 concentrations in total. The plate was incubated at 4° C. for 1 h. Anti-hIgG Alexa Fluor-647 was added as a secondary antibody in the ratio of 1:500. The plate was incubated at 4° C. for 30 min, and a FACS assay was performed. Antibodies that bind to FAP can mark cells. The relation between the percentage of the marked cells that over-express human FAP among all cells and the antibody concentration is shown in FIG. 1. The relation between the percentage of the marked cells that over-express mouse FAP among all cells and the antibody concentration is shown in FIG. 2.
# human FAP on CHO cells [2] = target: T2, human FAP on CHO cells (human, UniProt Q12884 1-760); assay: FACS, CHO cells overexpressing human FAP
# T2 construct: whole, on cells; also called CHO cell line overexpressing human FAP; CHOK1/FAP
# Experimental: as §1
# h-FAP-His [3] = target: T3, h-FAP-His (human, UniProt Q12884 26-760); assay: SPR, h-FAP-His analyte; lower end tied to Ab14 by Table 6
# T3 construct: range 26-760; Bought recombinant protein with a His tag; also called human FAP-His protein; FAP recombinant protein with a His tag
# Experimental: (§2) A CM5 sensor chip was used, and HBS-EP+buffer solution (10 mM HEPES, 150 mM NaCl, 3 mM EDTA, 0.05% surfactant P20) was used as the mobile phase. An anti-human IgG (Fc) antibody was made into a […] solution in a 10 mM sodium acetate buffer solution (pH 5.0) and immobilized by amino coupling. The test antibodies were diluted in HBS-EP+buffer solution and captured by the anti-human IgG (Fc) antibody on chip channels. h-FAP-His was dissolved in HBS-EP+buffer solution to prepare an analyte, and the analyte was serially diluted 2-fold. The diluted antibodies were passed through the experimental and reference channels at a flow rate of […], with 1 min of binding and 15 min of disassociation. 10 mM Glycine pH 1.5 was passed as a regeneration buffer solution for 30 s at a flow rate of […]. Data were analyzed. […] However, the binding affinities of the other anti-FAP antibodies obtained by screening at the same time in the present disclosure, such as Ab2, Ab4 and Ab5 (sequences not shown), for the antigen are lower than that of 28H1.
# h-FAP-His [4] = target: T3, h-FAP-His; assay: SPR, antibody captured by anti-human IgG Fc, h-FAP-His analyte
# Experimental: as §2
# h-FAP-His [5] = target: T3, h-FAP-His; assay: ELISA, human FAP-His coated
# Experimental: A FAP recombinant protein with a His tag was directly used for coating. After the antibodies were added, a secondary antibody (an HRP-conjugated anti-human IgG antibody) and the HRP substrate TMB were added to measure the binding activity of the antibodies to the antigen. The assay comprises the following steps: A […] solution of human FAP-His protein was used to coat a 96-well microplate at 100 μL/well, and the plate was incubated overnight at 4° C. After a thorough wash, a blocking solution was added at 200 μL/well, and the plate was incubated at room temperature for 2 h. After a thorough wash, dilutions of test anti-FAP antibodies were added at 100 μL/well. The plate was incubated at room temperature for 1 h. After a thorough wash, a 1:20,000 dilution of an HRP-labeled goat anti-human IgG secondary antibody was added at 100 μL/well. The plate was incubated at room temperature for 1 h. After a thorough wash, TMB was added at 100 μL/well, and the plate was incubated in the dark for 15 min. 0.16 M sulfuric acid was added at 50 μL/well. The OD value at 450 nm was measured on a Thermo MultiSkanFc microplate reader, and the binding EC₅₀ values of the anti-FAP antibodies were calculated.
# h-FAP-His [6] = target: T3, h-FAP-His; assay: SPR, h-FAP-His analyte; upper end tied to Ab15 by Table 6
# Experimental: as §2
# [7] = target: T4, human CD40 on cells (Raji cells; HEK-Blue CD40L cells; human dendritic cells) (human, UniProt P25942 21-277); assay: FACS, HEK-Blue CD40L cells expressing human CD40
# T4 construct: whole, on cells; One entry for untagged full-length human CD40 on cells; also called Raji cell surface human CD40; human cell surface CD40 antigen
# T4 sequence (P25942 21-277): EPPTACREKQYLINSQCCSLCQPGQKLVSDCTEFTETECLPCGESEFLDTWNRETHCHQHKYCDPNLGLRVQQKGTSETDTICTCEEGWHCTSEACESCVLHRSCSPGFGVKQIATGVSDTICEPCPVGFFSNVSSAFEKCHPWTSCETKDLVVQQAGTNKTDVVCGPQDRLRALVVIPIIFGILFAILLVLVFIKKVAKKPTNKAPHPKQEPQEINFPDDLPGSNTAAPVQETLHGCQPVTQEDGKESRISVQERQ
# Experimental: (§3) The binding of the bispecific antibodies to cell surface CD40 was measured by FACS, including HEK-Blue™CD40L cells highly expressing human CD40 (Invivogen, Cat #hkb-cd40), and HEK293 cells that were transiently transfected with cynomolgus monkey CD40 plasmids (Sino Biological, cat #CG90970-UT) and thus made to highly express cynomolgus monkey CD40. […] See FIGS. 9A, 9B and 11 and Table 21 for details.
# [8] = target: T5, human FAP protein (Acro, FAP-H5244) (human, UniProt Q12884 26-760); assay: SPR (Biacore 8K), antibody captured by anti-human IgG Fc, human FAP analyte
# T5 construct: Bought protein
# Experimental: (§4) The affinities of the anti-FAP/CD40 bispecific antibodies for their antigens, the human FAP protein (Acro, FAP-H5244) and the human CD40 protein (Acro, CD0-H5228), were measured by SPR (GE Healthcare; Biacore 8K). A CM5 sensor chip was used, and HBS-EP+buffer solution (10 mM HEPES, 150 mM NaCl, 3 mM EDTA, 0.05% surfactant P20) was used as the mobile phase. An anti-human IgG (Fc) antibody was immobilized by amino coupling. The test antibodies were separately diluted in HBS-EP+buffer solution as ligands and captured by the anti-human IgG (Fc) antibody on chip channels. Antigenic proteins of different species were used as analytes.
# human FAP on CHO cells [9] = target: T2, human FAP on CHO cells; assay: FACS, CHOK1 cells stably expressing human FAP
# Experimental: (§5) In this experiment, the binding of the anti-FAP/CD40 bispecific antibodies to stably transfected strains of CHOK1 cells that highly express human FAP, cynomolgus monkey FAP and mouse FAP was measured by FACS.
# [10] = target: T6, cynomolgus monkey CD40 on HEK293 cells (cynomolgus monkey, UniProt G7PG38 21-278); assay: FACS, HEK293 cells transiently expressing cynomolgus monkey CD40
# T6 construct: whole, on cells
# Experimental: as §3
# [11] = target: T4, human CD40 on cells (Raji cells; …); assay: flow cytometry on immature human dendritic cells (CD40)
# mouse FAP on CHOK1 cells [12] = target: T1, mouse FAP on CHOK1 cells; assay: FACS, CHOK1 cells stably expressing mouse FAP
# Experimental: as §5
# h-CD40-His = target: T7, h-CD40-His (human, UniProt P25942 21-193); assay: SPR (Biacore 8K), antibody captured by anti-human IgG Fc, human CD40 analyte
# T7 construct: range 21-193; Bought His-tagged recombinant protein; also called human CD40 protein (Acro, CD0-H5228); human CD40
# T7 sequence (P25942 21-193 limits assumed): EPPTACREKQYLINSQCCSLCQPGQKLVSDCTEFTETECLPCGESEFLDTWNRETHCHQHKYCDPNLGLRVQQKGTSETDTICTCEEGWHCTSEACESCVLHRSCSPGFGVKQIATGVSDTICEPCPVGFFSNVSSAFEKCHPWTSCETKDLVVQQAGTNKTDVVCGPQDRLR
# Experimental: as §4
# [13] = target: T8, cynomolgus monkey FAP on CHOK1 cells (cynomolgus monkey); assay: FACS, CHOK1 cells stably expressing cynomolgus monkey FAP
# T8 construct: whole, on cells
# Experimental: as §5
# T1 sequence (P97321 whole entry): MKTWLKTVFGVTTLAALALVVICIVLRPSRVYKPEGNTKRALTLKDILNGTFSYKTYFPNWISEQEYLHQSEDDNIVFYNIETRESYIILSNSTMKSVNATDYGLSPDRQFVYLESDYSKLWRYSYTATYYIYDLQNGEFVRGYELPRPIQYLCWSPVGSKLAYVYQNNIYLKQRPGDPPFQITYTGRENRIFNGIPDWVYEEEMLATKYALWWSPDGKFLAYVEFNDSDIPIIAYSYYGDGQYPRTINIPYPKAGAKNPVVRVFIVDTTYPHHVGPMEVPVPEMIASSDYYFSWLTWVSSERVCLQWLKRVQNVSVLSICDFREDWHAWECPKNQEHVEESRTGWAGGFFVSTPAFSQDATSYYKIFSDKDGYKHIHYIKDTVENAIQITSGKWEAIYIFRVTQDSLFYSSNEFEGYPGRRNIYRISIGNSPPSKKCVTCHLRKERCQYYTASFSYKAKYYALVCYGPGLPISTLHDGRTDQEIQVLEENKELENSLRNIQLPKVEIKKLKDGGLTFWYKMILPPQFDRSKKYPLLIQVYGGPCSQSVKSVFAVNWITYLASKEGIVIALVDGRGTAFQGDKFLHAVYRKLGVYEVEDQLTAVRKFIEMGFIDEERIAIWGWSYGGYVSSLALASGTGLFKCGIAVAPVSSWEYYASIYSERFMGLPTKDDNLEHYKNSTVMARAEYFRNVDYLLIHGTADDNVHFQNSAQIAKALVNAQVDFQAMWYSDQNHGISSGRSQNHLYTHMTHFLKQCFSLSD
Binder,EC50 (read off the curve) (mouse FAP on CHOK1 cells [1]) [ng/mL],EC50 (human FAP on CHO cells [2]) [ng/mL],Kd (h-FAP-His [4]) [nM],Ratio of KD of 28H1 to KD of test antibody (h-FAP-His [4]),Ratio of Kd of 28H1 to Kd of test antibody (h-FAP-His [4]),koff (h-FAP-His [4]) [s⁻¹],kon (h-FAP-His [4]) [M⁻¹ s⁻¹],EC50 (h-FAP-His [5]) [ng/mL],EC50 [7] [nM],Emax (MFI) [7] [MFI],Kd [8] [nM],koff [8] [s⁻¹],kon [8] [M⁻¹ s⁻¹],EC50 (human FAP on CHO cells [9]) [nM],Emax (MFI) (human FAP on CHO cells [9]),EC50 [10] [nM],Emax (MFI) [10] [MFI],EC50 (read off the curve) [11] [nM],EC50 (mouse FAP on CHOK1 cells [12]) [nM],Emax (MFI) (mouse FAP on CHOK1 cells [12]),also measured
"Ab14 (antibody, human IgG1, kappa, L234A L235A, V domains shown, Fully human, IgG1 / kappa; also called anti-FAP antibody Ab14; Ab114) VH: QVQLQQSGVEVKKPGASVTVSCRASGYSFADHFIHWVRQAPGQGFQWMGWINPNRGVTHHAQDFQGRVAMTRDMSTDTVYMELTSLRSDDTAVYYCARDASLTARPYYFYGFDVWGQGTLVTVSS VL: EIVLTQSPSSVSASVGDRVTITCRASQGISSWLAWYQQKPGKAPKLLIYAASSLQSGVPSRFSGSGSGTDFTLTISSLQPEDFATYYCQQANSFPLTFGGGTKVEIKR",~8,0.474,0.365,3.6,2.1,0.000121,332000,417000,–,–,–,–,–,–,–,–,–,–,–,–,fold affinity over 28H1 (h-FAP-His [3]): 3 to 6 times
"Ab15 (antibody, human IgG1, kappa, L234A L235A, V domains shown, Fully human, IgG1 / kappa; also called anti-FAP antibody Ab15) VH: QMQLVQSGAEVKKPGASVTVSCRASGYSFADHFIHWVRQAPGQGFQWMGWINPNRGVTHHAQDFQGRVAMTRDMSTDTVYMELTSLRSDDTAVYYCARDESLTARPYYFYGFDVWGQGTLVTVSS VL: EIVLTQSPSSVSASVGDRVTITCRASQGISSWLAWYQQKPGKAPKSLIYAASSLQSGVPSRFSGSGSGTDFTLTISSLQPEDFATYYCQQANSFPPTFGGGTKVEIKR",~8,0.486,0.215,6.1,2.43,0.000105,488000,321000,–,–,–,–,–,–,–,–,–,–,–,–,fold affinity over 28H1 (h-FAP-His [6]): 3 to 6 times
"Ab10-A297V3-2 (bispecific antibody, human IgG1, kappa, L234A L235A, Ab10 IgG1 (L234A/L235A) with one A297V3 VHH on each heavy chain C-terminus; divalent for CD40; also called Ab0-A297V3-2) heavy: not shown light: DIQMTQSPSSVSASVGDRVTITCRASQGISSWLAWYQQKPGKAPKLLIYAASSLQSGVPSRFSGSGSGTDFTLTISSLQPEDFATYYCQQANSFPPAFGQGTKVEIKRTVAAPSVFIFPPSDEQLKSGTASVVCLLNNFYPREAKVQWKVDNALQSGNSQESVTEQDSKDSTYSLSSTLTLSKADYEKHKVYACEVTHQGLSSPVTKSFNRGEC",–,–,–,–,–,–,–,–,1.66,6250,0.405,8.22e-05,203000,2.51,65200,1.31,4930,~4,0.79,12600,Kd (h-CD40-His): 141 nM; koff (h-CD40-His): 0.0294 s⁻¹; kon (h-CD40-His): 209000 M⁻¹ s⁻¹; EC50 [13]: 1.09 nM; Emax (MFI) [13]: 28200 MFI
"Ab10-A297V3-4 (bispecific antibody, human IgG1, kappa, L234A L235A, Ab10 IgG1 (L234A/L235A) with two A297V3 VHHs in tandem on each heavy chain C-terminus; tetravalent for CD40; also called Ab0-A297V3-4) heavy: not shown light: DIQMTQSPSSVSASVGDRVTITCRASQGISSWLAWYQQKPGKAPKLLIYAASSLQSGVPSRFSGSGSGTDFTLTISSLQPEDFATYYCQQANSFPPAFGQGTKVEIKRTVAAPSVFIFPPSDEQLKSGTASVVCLLNNFYPREAKVQWKVDNALQSGNSQESVTEQDSKDSTYSLSSTLTLSKADYEKHKVYACEVTHQGLSSPVTKSFNRGEC",–,–,–,–,–,–,–,–,0.94,5080,0.378,6.96e-05,184000,1.57,53800,0.88,5120,~1,1.65,12700,Kd (h-CD40-His): 262 nM; koff (h-CD40-His): 0.137 s⁻¹; kon (h-CD40-His): 524000 M⁻¹ s⁻¹; EC50 [13]: 1.35 nM; Emax (MFI) [13]: 32500 MFI
